From the DeepSol protein solubility set

Experiment: soluble on expression in E. coli; label from the status in PepcDB or PDB records

Sequence	soluble on expression in E. coli
MDSLEKIKEEVISCKKCKLWQFRTNAVPGEGYPKAEIMFVGEAPGENEDKEGRPFVGAAGKLLTQMIKEILGLERDQVFITNVVKCRPPNNRDPEEDEITACSPYLDRQIDIIMPKIIVTLGRHSTKYIFSKMGENFSSITKVRGKSYVWKYKEKEIIVFPTYHPAAALYNPNLRKILEEDFKKIRELAITPKRYTIDYFLGGKNRSWDKREKSDSNSGK	soluble
MDSLQKTTMIDLLLRSDKRRKILLFLKEGPKNIEEITALLGSSCTAVLPQMKKLIEKGLVRQENKIYRLSTVGMIVTEKLVPLLGTIEVFENNLEYWAQKDLTGIPAFLRLKLEMLSQYEVIEPQLNRMFEPPEEFINSLKKSTEIMYFSSFFQPCFSGFDQDFLKKRTDSTFIFTKNFFERISSPHSEEYDELLLPERANLYVYDGISSLVSLTVTERFMALMLLNKKGKLDQNLLISSESEAIEWGKELFMYYREISKKIYGDKADRLLSEKIIPPGKKSGYGTGSDLLQISCLRKTKYKMAAALEHHHHHH	not soluble
MDSQKFIDLCKKHVVDFANSQLDYTDQKKISESDIYVVWLAKTLQNNKALLSTNLFDGMYYEVTFNGDKNELYFDAYKKWRNIRFDVTEGGDQNG	not soluble
MDSWYPSKELIEACLKKGFHVIAMLKTNRILYPKGIAVQAKQFARYLEPRDTRLVTVGNERYRVYRYEGALNGLDDAVVLLTWKADQPMTPEHLHGVLSTDRELSDEDILRYYAQRWSIECFFRQVKDQLKLDGYRVRHIRAVKRYWVTVLLACVYSIAESQQDISAGLNLLRTRKGHSLIEFIYDAAKQDIPIDVVKKQLHVA	not soluble
MDTEMLIDKYQLNDSEAAVLRFMDKNRDCLKSLGIREVAKASYVSTTAIINMAKKIGYSGYSELVFAYGNKHSSISFPENFSNEEKDEFIRLLSRYREKRIMVLGSGFSQNIANHFSEMLNLYGFRATANSHLEFLRENVEKDVLIFIVSNSGDTLRLAELVKLAKNHHIDLIAFVGEKKSKIGQLATLTISTETYNPQVVSEYQPNLFFGTALNQFELLLSEALKSIFI	not soluble
MDTGNNNNLPTLLKCNFPPYGKDYPGGFATGRFSDGRVPSDLIAEKLGLAKTLPAYMNPYLKPEDLLKGVTFASGGTGYDPLTAKIMSVISVWDQLINFKEYISKIKRHFGEEKAKDILEHSFFLVVSSSNDLAHTYLAQTHRYDRTSYANFLADSAVHFVRELHKLGARKIGVFSAVPVGCVPLQRTVFGDKELDGVILYINVYDTLFDMIQHPKKYGFEVADRGCCGKGLLAISYLCNSLNPFTCSNSSAYIFWDSYHPSERAYQVIVDNLLDKYLSKVY	soluble
MDTLAFINRALVEEGYSLKDIKLVLITDFEPSSVEAIRRLLAVNQGVSFIGRKYVKEVLEKFGLRNVRFRAVEEIPSLEFKLPESGTVKVLPFRNSPQEASAGYLLEEERILFSGKFLGSFGEKGDTIQIFHRVFFPCRNILDYNVGLLESIGEEFEVFPFYGEKQKLSAKTLKEYFNYTVKGSVLEREVILGLVNGVLLNLSDEERENLLSSIGYLAEVDDKVIVDFYTEPNLFYEEFVNTLPDAVKSKEEFYRIVEKLLEHNFYVPLRAV	not soluble
MDTSLIRELAELALAGSGQHCHEEALCIAEWLERLGQDEAARLIRISSLANQGRYQEALAFAHGNPWPALEPWFALCEWHLGLGAALDRRLAGLGGSSDPALADFAAGMRAQVRT	soluble
MDTSLPSAILNNMVTATLILDDGLAIRYANPAAELLFSQSAKRIVEQSLSQLIQHASLDLALLTQPLQSGQSITDSDVTFVVDGRPLMLEVTVSPITWQRQLMLLVEMRKIDQQRRLTQELNQHAQQQAAKLLVRGLAHEIKNPLGGLRGAAQLLEKMLPDPSLTEYTHIIIEQADRLRALVDRLLGPQKPGK	not soluble
MDTTEFDEIRPYNDEELPQIFEELIADPAFQKAATDAIPNVPFELLAQKIRACKSKLDFQETFCYGILWKIAADHTDGLTLDHTAVPDKSKAYTYVSNHRDIILDSGFLSILLIDQGMDTVEIAIGDNLLVYPWIKKLVRVNKSFIVQRALTMRQMLESSARMSRYMHYTINEKNQSIWIAQREGRAKDSNDRTQDSVLKMLAMGGEGDLIDRLMEMNIAPLAISYEYDPCDFLKAQEFQLKRDIEGYKKTTQDDLISMQTGLFGYKGKVHFQTAPCINDRLAQLDRSLPKQELFSSISACIDQRIHSNYRIYSGNYVAYDLLKGTSEFAGHYTPEEKQRFVTYIEQQLGKIKIPNKDEDFLRGKLLLMYANPLVNYLAACQ	not soluble
MDVEPIFCAEQIVIPHNLADILKAYTKEVIRRQPTDLIAFSAKYFTNLANVASGVSNSSAPAKEQLRQVYTRGGSGGATLTESQVTGLCQQAGIADAVVAKVMEVGAFTPAAVDLSKFVFLCLAMSCEDFNRVCMGVFDVFSDNGSLPAQDLLTLIAHLGPDMDPEVTPAFLDAVAAELPAGGGAVTYMELCEAPSLKPKLGLS	not soluble
MDVEVKNKANRRHVGHNLQKIRVYFGMKQEALAADLGVNQQVISKIEKQEEIEEGLLNQIASVLGISAEVIKDFDVEKAIYNINNIRDNTFEQGATSIAQQFNPLDKIVELYERLLQSEREKIELLKKR	not soluble
MDVLVTAGGTSEPIDNVRSITNHSSGGLGKAIAESFLAAGHTVTYVTTKHALRPTQQLDLSIKEIETTVELATTLEQLFAEKQFDAIVHAMAVSDFTTETAQTEEQFIDSFAQQLSEQTLPKTKEALVTIVQNTLNQIADIPQTATKISSDTDRLLIFLKKNPKVIQMIRDKQPQTVLVGFKLLVNVSQEELVQVAQAALVKNRCDFVLANDLMNVHETEHKGLLINETGIVQEAYSKQGIGSMIVKNVEKKWREQQ	not soluble
MDVQKKAQMVIEEVKKAIVGKDNVLKLVLATILADGHILIEDLPGLAKTLMAKSFAKALGLEFKRVQFTPDLLPSDILGVNVFNQKTLEFEFKKGPVFTNILLADEINRAPPKTQSALLEAMQERQVTIEGVTYKLPKPFIVIATQNPIEQEGTYPLPEAQLDRFLVRLRMGYPSKDEEKEILRRRIERKQDEVEIETVLSPKDVLKMQREVEDVYVSDAIIEYITSLVWATREDKRDIEIGVSPRGSLALLKLSRAYAAIEGRDYVIPDDVKAVAIPALSHRIILKRELWYTRVSQESVIEKILERVPVPKFE	soluble
MDVRIRAIDERSYLNIISAIFKDLGLPQLIDRLVPVDRQCQTRTSDIVSLIILDILSGRQALVHLERWAHDIDWPKWIRPGPDPSWFNDDAIARHLDRLYEANIHQVLSSCLVQIDKKEGLSLRVFHADATDKTVYGAYESDSSDVLHITYGYNRHHRWQKPIGFGLIGNEDGIPFYGDVHDGNLSDKAWNPEVLSRIHEQFKQAKIDDEWMYVADSVAMTKETLAQTKAANAFLITRGPSSLRIVKTALSEADAQPDSAWSAPLRWPRKTAPRIGYGKRPRPMKAAPYG	not soluble
MDVRPYEGGRFEKIGSEEAHTIETFERRIHGTPHSEPQRQVSSKQYTERRTYGRDENGEIVVKIEKNPSEPVRPASPVRPVTPVGGENELSRHLLQPIQPLHIPRIDIQPANSSRHASPRHKLQYDEVSPRSGSINMLSPRSGHSASSRSGAGSRQSNVSVNSANVPLKKVTKKSRFVSIHDGRPVSPYTETVSFEVAIPFQPDRYSSASARSFSSSPHVSRRPSECAYLMENPLYQD	not soluble
MDVRQSIHSEHAKTLDTQALRREFLIENIFVADEYTMVYSHIDRIIVGGIMPVSHPVEIGGEVGKQLGVSRLLDRRELGVINIGGAGAIIVDGQRHDIGHRDALYIGKGAKELVFVSNEASRPAKFYYNCAPAHTAYPTKKVSPADVAPVTLGDNLTSNRRTINKYFVPDVLETCQLSMGLTELAPGNLWNTMPCHTHERRMEVYLYFNMEEDSCVFHMMGQPQETRHIVMRNEQAVISPSWSIHSGVGTKAYTFVWGMVGENQVFDDMDHVAVQDLR	not soluble
MDVVKEIMAAIKQYETIIIHRHQRPDPDAIGSQVGLAELLRASFPEKNIYQVGGPVEGLEFLAEMDVITDDVYRGALVIVTDTANAPRISDARFSLGDQLIKIDHHPNDEPYGDLVWVNTNASSCSEIIVDFWQQHLAELTMTDNAARLLYAGIVGDTGRFLYPSTSAHTLAVAAQLRTFNFNAADLNRELDQMPLKVAKLAGYIYQNLEIDANGAARVVLPQSILNSYDIVDSETAAIVSMPGKIEDVLSWAIFVEQPEGYYRVRLRSKGPIINTIAKKHHGGGHPLASGANARDAAEIEVIYQEIQAACQEWAQK	not soluble
MDWDLITERNIQLFIQLAGLAERPLATNMFWRQGQYETYLNYHNGRIHLCQILKQTFLDEELLFKALANWKPAAFQGIPQRLFLLRDGLAMSCSPPLSSSAELWLRLHHRQIKFLESQCVHG	not soluble
MDYEIENNHADSIRRGSIEVICGSMFSGKTEELLRRLRRAKIARQTVEIFKPTIDIRYDETDVVSHDKNAIASTPVDNSANILLLSSQVDVVGIDEAQFFDEGLVEVAQQLADQGVRVVIAGLDMDFRRQPFGPMPGLCAIADSVTKVHAVCVECGRLASYSFRRVQGDQQVMLGELNEYSPLCRTCYRKCSSPPQTEEIHSTI	not soluble
MDYEIRQEQKRKIAGFHMVGPWEHTVKQGFEQLMTWVDRQRIVPVEWIAVYYDNPDVVPAEKLRCDTVVSVAENFILPDNSEGVIVTAIEGGEYATAVARVEDRDFAKPWERFFDVLEQDSAYQIASAPCFETYLNNGMEDGYWDIEMYIPVQRK	not soluble
MDYKEIVFDVDNTLIDTEYAILHSLQDTIKQINRKIIPIKELSFALGITGEDALRYLKIEDITIALSMWDRNMEKYKNTVLVFKEIKEMLTEIIKLNIGIGIVTSKTHEEFRNDFLSFDIAPYFNTVVCSNDTLEHKPKAVPLLKYMELTKCQNNELLYIGDSIYDMQCAYRANVDFGLVKWGSGDRVSTVISFTTPLDLIRQLSVSSN	not soluble
MDYSVANAGFERFQSAMEKDVERMRDFQERMSQVRGKGEAAEGRITAEVDSENGLAVLDIDPRVLRMPVEDISTEIRAAVNAAFKDFQDKTGSLAAELYGAQGEDPEKILADPSALLAKIEELGNNFAVQLQDMARELSVQQQRAKDIAGRMTPPRDLD	not soluble
MDYTPHTEEEIREMLRRVGAASLEDLFAHLPKEILSPPIDLPEPLPEWKVLEELRRLAAQNLPAHKAFLGGGVRSHHVPPVVQALAARGEFLTAYTPYQPEVSQGVLQATFEYQTMIAELAGLEIANASMYDGATALAEGVLLALRETGRMGVLVSQGVHPEYRAVLRAYLEAVGAKLLTLPLEGGRTPLPEVGEEVGAVVVQNPNFLGALEDLGPFAEAAHGAGALFVAVADPLSLGVLKPPGAYGADIAVGDGQSLGLPMGFGGPHFGFLATKKAFVRQLPGRLVSETVDVEGRRGFILTLQAREQYIRRAKAKSNITTNAQLTALMGAMYLAALGPEGLREVALKSVEMAHKLHALLLEVPGVRPFTPKPFFNEFALALPKDPEAVRRALAERGFHGATPVPREYGENLALFAATELHEEEDLLALREALKEVLA	soluble
MEASKDISRLIEIMEALRQPETGCPWDVVQTFETIKPYTIEEAYEVADAIERKDMDDLCDELGDLLLQVVFHARIAEERGEFTFGDVVHAVTSKMIRRHPHVFDVSDADTPDSVKLQWDQIKAEEKRERAERRARRGITEDFKAGFLGGVQRSQPALTEALKLQEQAARVGFDWSDPAPILDKIEEEIAELREALAEGKPEKVSDELGDLIFALVNIGRHVKADPEDALRGTNTKFRRRFNHIETSLSDNGETLKEASLERMEDLWQAAKRIERSLDTVSS	not soluble
